Source: US20060189529A1 (AMBRX, published 2006)

B1: rat GH WT (ligand, UniProt P01244 27-216, looked up)
chain: FPAMPLSSLFANAVLRAQHLHQLAADTYKEFERAYIPEGQRYSIQNAQAAFCFSETIPAPTGKEEAQQRTDMELLRFSLLLIQSWLGPVQFLSRIFTNSLMFGTSDRVYEKLKDLEEGIQALMQELEDGSPRIGQILKQTYDKFDANMRSDDALLKNYGLLSCFKKDLHKAETYLRVMKCRRFAESSCAF
notes: also called rat growth hormone

Key:
[1] = molecular target: T1, full length rat GHR (L43R) on BAF3 cells (clone 2E2-2B12-F4) (rat) (UniProt P16310); assay: cell-based or functional assay
T1 sequence (looked up): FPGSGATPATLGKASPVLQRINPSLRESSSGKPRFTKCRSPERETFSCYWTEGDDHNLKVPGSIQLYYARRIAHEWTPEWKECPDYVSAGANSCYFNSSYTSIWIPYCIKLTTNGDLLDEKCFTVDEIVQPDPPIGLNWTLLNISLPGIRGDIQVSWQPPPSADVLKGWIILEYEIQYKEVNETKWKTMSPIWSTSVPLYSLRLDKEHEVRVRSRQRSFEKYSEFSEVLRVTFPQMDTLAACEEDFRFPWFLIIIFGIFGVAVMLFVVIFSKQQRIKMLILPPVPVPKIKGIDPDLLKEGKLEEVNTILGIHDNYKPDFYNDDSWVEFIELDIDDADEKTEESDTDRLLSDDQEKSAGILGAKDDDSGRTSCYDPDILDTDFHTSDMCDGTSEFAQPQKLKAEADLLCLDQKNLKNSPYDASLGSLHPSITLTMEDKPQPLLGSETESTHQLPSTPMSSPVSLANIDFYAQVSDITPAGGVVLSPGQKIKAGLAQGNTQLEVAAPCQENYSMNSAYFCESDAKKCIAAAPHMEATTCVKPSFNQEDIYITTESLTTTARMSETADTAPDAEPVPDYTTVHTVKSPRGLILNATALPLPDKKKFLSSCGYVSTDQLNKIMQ

[2] = molecular target: human growth hormone receptor on IM-9 cells (human) (UniProt P10912); assay: cell-based or functional assay
[3] = molecular target: T2, rat GHR ECD (L43R), soluble, C-terminal 6His (rat, UniProt P16310 47-256); assay: Biacore SPR; rat GHR ECD (L43R) on CM5 chip, GH injected; bivalent analyte model
T2 construct: also called soluble GHR ECD; rat GHR (L43R) extra cellular domain; not shown: C-terminal 6His tag of pET20b
T2 sequence (looked up): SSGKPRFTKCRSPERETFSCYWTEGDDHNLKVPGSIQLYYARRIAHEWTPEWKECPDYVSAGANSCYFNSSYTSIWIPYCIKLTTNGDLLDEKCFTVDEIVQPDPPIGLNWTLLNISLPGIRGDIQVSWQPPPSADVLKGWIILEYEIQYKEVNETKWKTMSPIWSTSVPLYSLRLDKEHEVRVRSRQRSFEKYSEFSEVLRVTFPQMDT

[4] = molecular target: T3, human growth hormone receptor on IM-9 cells (human, UniProt P10912 19-638); assay: cell-based or functional assay
T3 sequence (looked up): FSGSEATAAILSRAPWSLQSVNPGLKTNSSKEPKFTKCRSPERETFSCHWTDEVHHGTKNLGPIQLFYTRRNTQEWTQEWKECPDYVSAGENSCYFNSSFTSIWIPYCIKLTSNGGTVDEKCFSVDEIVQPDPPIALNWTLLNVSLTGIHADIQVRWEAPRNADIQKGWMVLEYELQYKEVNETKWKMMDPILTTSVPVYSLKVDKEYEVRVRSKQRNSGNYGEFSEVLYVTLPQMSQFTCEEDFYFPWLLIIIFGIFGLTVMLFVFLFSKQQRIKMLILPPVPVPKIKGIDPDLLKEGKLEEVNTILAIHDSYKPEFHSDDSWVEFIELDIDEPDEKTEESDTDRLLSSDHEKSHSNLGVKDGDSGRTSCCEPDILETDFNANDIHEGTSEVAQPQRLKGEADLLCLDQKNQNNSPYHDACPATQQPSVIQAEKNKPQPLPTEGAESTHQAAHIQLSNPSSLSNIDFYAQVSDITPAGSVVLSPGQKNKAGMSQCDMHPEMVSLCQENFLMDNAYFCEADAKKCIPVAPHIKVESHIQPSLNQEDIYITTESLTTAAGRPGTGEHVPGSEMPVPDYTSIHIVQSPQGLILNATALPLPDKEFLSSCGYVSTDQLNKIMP

Molecule | Proliferation EC50 (BrdU, rat GHR (L43R) BAF3 cells) (nM as headed; WHO hGH expressed as unity) [1] | pSTAT5 EC50 (IM-9) (nM as headed; WHO hGH expressed as unity) [2] | Kd [3] | koff [3] | kon [3] | EC50 (nM), STAT5 phosphorylation in IM-9 cells [4]
hGH Y35pAF-40KPEG (from UniProt P01241 27-217) (ligand) | 24 | 53.3 | – | – | – | –
hGH R134pAF-20KPEG (from UniProt P01241 27-217) (ligand) | – | 5.3 | – | – | – | –
hGH Y143pAF-30KPEG (from UniProt P01241 27-217) (ligand) | 6.6 | 12.3 | – | – | – | –
hGH G131pAF-30KPEG (from UniProt P01241 27-217) (ligand) | 4.6 | 23.8 | – | – | – | –
hGH K145pAF-30KPEG (from UniProt P01241 27-217) (ligand) | 5.3 | 20.6 | – | – | – | –
B1 | – | – | 250 nM | 0.0083 s⁻¹ | 33000 M⁻¹ s⁻¹ | > 200000 nM
